Where “and” joins values, the source holds several entries; their conditions need not be identical. Equal entries are not always repeated.
Target: p53, Gal4 fusion of the two-hybrid control plasmid pM53
Assay: two-hybrid

In the case of “SV-40 large T, VP16 fusion of the two-hybrid control plasmid pV-T (natural protein)”, the CAT protein of the two-hybrid reporter is reported as 186 pg and 251 pg.
